Earlier results as cited in PMC4184475.

Experiments:
[1] = biological target: Cys473 (UniProt position 487, ILIFHCEFSSE); settings: reduced thiol form (implied); otherwise not stated
[2] = biological target: Cys106 (UniProt position 106, LIAAICAGPTA); settings: reduced thiol form (implied); otherwise not stated

Substance	pKa [1]	pKa [2]
Cdc25B phosphatase (M-phase inducer phosphatase 2) (Homo sapiens)	5.8	
DJ-1 (Parkinson disease protein 7) (Homo sapiens)		5.4
